Results reported in patent US9624506B2, “Glyphosate resistance enhancement” (Keygene N.V., priority 2011, dated 2017).
Substitutions are numbered along the chain they refer to. Names may count otherwise. “Also recorded” adds a separate entry of the source.

B1: P106L: A. thaliana EPSPS with Proline at position 106 changed into Leucine (SEQ ID NO:12) (protein, listed as Arabidopsis thaliana)
chain: MAQVSRICNGVQNPSLISNLSKSSQRKSPLSVSLKTQQHPRAYPISSSWGLKKSGMTLIGSELRPLKVMSSVSTAEKASEIVLQPIREISGLIKLPGSKSLSNRILLLAALSEGTTVVDNLLNSDDINYMLDALKRLGLNVETDSENNRAVVEGCGGIFPASIDSKSDIELYLGNAGTAMRLLTAAVTAAGGNASYVLDGVPRMRERPIGDLVVGLKQLGADVECTLGTNCPPVRVNANGGLPGGKVKLSGSISSQYLTALLMSAPLALGDVEIEIVDKLISVPYVEMTLKLMERFGVSVEHSDSWDRFFVKGGQKYKSPGNAYVEGDASSASYFLAGAAITGETVTVEGCGTTSLQGDVKFAEVLEKMGCKVSWTENSVTVTGPPRDAFGMRHLRAIDVNMNKMPDVAMTLAVVALFADGPTTIRDVASWRVKETERMIAICTELRKLGATVEEGSDYCVITPPKKVKTAEIDTYDDHRMAMAFSLAACADVPITINDPGCTRKTFPDYFQVLERITKH
B2: N44D: A. thaliana EPSPS with Asparagine at position 44 changed into Aspartic Acid (SEQ ID NO:11) (protein, listed as Arabidopsis thaliana)
chain: B1 chain with N120D, L182P
B3: N44D+P106L: A. thaliana EPSPS double mutant N44D and P106L (SEQ ID NO:13) (protein, listed as Arabidopsis thaliana)
chain: B1 chain with N120D
B4: N44D+S179N: A. thaliana EPSPS double mutant N44D and S179N (SEQ ID NO:16) (protein, listed as Arabidopsis thaliana)
chain: B1 chain with N120D, L182P, S255N
B5: G101A: EPSPS with Glycine at position 101 changed into Alanine (position 96 in E. coli; SEQ ID NO:17) (protein, listed as Arabidopsis thaliana)
chain: B1 chain with G177A, L182P
B6: wild type (WT): Arabidopsis thaliana EPSPS (At2g45300), unmutated, SEQ ID NO:9/10 (protein, listed as Arabidopsis thaliana)
chain: B1 chain with L182P
B7: T42M: T42M mutation in Salmonella EPSPS enzyme (protein, UniProt P07637 1-427, looked up, variant T42M)
3-phosphoshikimate …: MESLTLQPIARVDGAINLPGSKSVSNRALLLAALACGKTALMNLLDSDDVRHMLNALSALGINYTLSADRTRCDITGNGGALRAPGALELFLGNAGTAMRPLAAALCLGQNEIVLTGEPRMKERPIGHLVDSLRQGGANIDYLEQENYPPLRLRGGFTGGDIEVDGSVSSQFLTALLMTAPLAPKDTIIRVKGELVSKPYIDITLNLMKTFGVEIANHHYQQFVVKGGQQYHSPGRYLVEGDASSASYFLAAGAIKGGTVKVTGIGRKSMQGDIRFADVLEKMGATITWGDDFIACTRGELHAIDMDMNHIPDAAMTIATTALFAKGTTTLRNIYNWRVKETDRLFAMATELRKVGAEVEEGHDYIRITPPAKLQHADIGTYNDHRMAMCFSLVALSDTPVTILDPKCTAKTFPDYFEQLARMSTPA

Experiments:
[1] = tested on: E. coli; test: Complementation assay in E. coli using A. thaliana EPSPS variants, growth in M9 medium with glyphosate; type: cell-based; conditions: 30 mM glyphosate; for glyphosate resistance (bacterial growth, OD600 over time): E. coli BL21 expressing A. thaliana EPSPS variant, M9 medium, 1 mM IPTG, 25° C.
Source text: Each of these EPSPS variants was then cloned as a 1576 bps EcoRI-BamHI fragment into the vector pET302 NT HIS (Invitrogen, product K630203), fusing the EPSPS variants to a 6× His tag and allowing inducible protein expression with IPTG in E. coli. These constructs were introduced into the E. coli expression strain BL21 OAS (Invitrogen) for complementation assays.
E. coli is unable to grow in minimal M9 growth medium supplemented with glyphosate due to inhibition of the activity of the endogenous bacterial EPSP synthase AroA. Bacterial growth can be restored by complementation with a glyphosate resistant plant EPSPS gene. The E. coli strains containing the A. thaliana EPSPS variants were grown overnight in 10 ml LB medium containing 100 μg/ml carbenicillin (Duchefa). Strains were then diluted 4 fold in the same medium and allowed to grow for a further 4 hours. The […] of each culture was then measured and 1.5 ml culture was centrifuged at 4000 rpm for 10 minutes. The bacterial pellet was resuspended in 500 μl M9 medium (12.8 g/l Na2HPO4, 3.0 g/l KH2PO4, 0.5 g/l NaCl, 1.0 g/l NH4Cl, 2.0 g/l glucose, 0.4940 g/l MgSO4.7H2O, 15 mg/l CaCl2.2H2O, thiamine and 10 mg/l FeSO4.7H2O) used to inoculate 10 ml M9 medium containing 1 mM IPTG and 100 μg/ml carbenicillin and 30 mM glyphosate to an OD600 of 0.1. Identical cultures for each strain were also made lacking glyphosate and these were used to assess the growth of each strain without selection. The cultures were then grown at 25° C. and the OD600 was measured over time to assess bacterial growth (see FIG. 2).

[2] = tested on: Arabidopsis thaliana; test: Glyphosate tolerance of transgenic Arabidopsis lines (average seedling weight +Gly/-Gly); type: in vivo; conditions: transgenic Arabidopsis lines overexpressing EPSPS gene; MS20 medium, 400 μM glyphosate, 4 weeks
Method: The mutated Arabidopsis EPSPS genes tested in E. coli (see Example 1) were cloned into the binary vector pEARLEYGATE100 (The Plant J. 2006; 45:616-629). Briefly, the EPSPS genes were isolated as BamHI and SacI fragments comprising the complete ORF's and then inserted into the same unique sites present in the binary vector. […] This series of binary vectors were electroporated to the Agrobacterium tumefaciens strain GV2260 and bacterial colonies were selected on LB medium containing 100 μg/ml spectinomycin, using methods known to the skilled person.
Seeds of Arabidopsis thaliana (ecotype Colombia) were sown on soil and once germinated a single seedling was placed in a 5 cm×5 cm pot and allowed to grow until the first influorescence appeared. At this stage the plants were then transformed using the floral dip method. Briefly, the Agrobacterium strains were grown overnight in 50 ml liquid LB medium containing 100 μg/ml spectinomycin at 28° C. and then this culture was centrifuged at 4000 rpm for 10 minutes. The pellets were then resuspended in a 5% sucrose solution containing 0.02% Silwet (Lehle Seeds). The Arabidopsis plants were dipped into this culture and then incubated overnight in the dark at 25° C. The plants were then allowed to grow further in the greenhouse and after 7 days the dipping procedure was repeated. The plants were then allowed to set seed which was then germinated on soil. For selection of transformed Arabidopsis seedlings, a solution of glufosinate was prepared (0.1 mg/ml glufosinate ammonium+0.005% silwet) and sprayed on the seedlings. After 7 days the surviving seedlings were identified, grown to maturity and the seeds were collected.
We performed a segregation analysis on the seed of the transgenic lines to estimate the T-DNA copy number. Seed from each of the transgenic lines was sterilized with a 2% hypochlorite solution and washed with sterile water. Approximately 100 seeds per line were then placed on MS20 medium containing 0.1 mg/ml glufosinate ammonium and the number of surviving seedlings was scored after 20 days. The lines with a single T-DNA copy that segregated […] (resistance:sensitivity) to the glufosinate were selected for further phenotyping.
Seeds from the transgenic Arabidopsis lines were sterilized and then placed on MS20 medium containing 0.1 mg/ml glufosinate ammonium and +/−400 μM glyphosate and were grown for 4 weeks. After this period the seedlings were removed from the growth plates and the average seedling weight was determined. The degree of glyphosate resistance for each line was determined by dividing the average seedling weight in the presence of glyphosate by the average seedling weight found in the absence of glyphosate.

[3] = E. coli EPSPS, Eschenburg et al. 2002; cited from earlier work
[4] = Salmonella EPSPS; cited from earlier work
[5] = Salmonella EPSPS; cited from earlier work; remark: listed apart in the source

| Molecule | glyphosate resistance (bacterial growth, OD600 over time) [1] | glyphosate resistance (ratio of average seedling weight +Gly/-Gly) [2] | also measured |
| --- | --- | --- | --- |
| B1 | good level of resistance | reasonable resistance |  |
| B2 | some resistance to glyphosate; also recorded: provides tolerance to glyphosate | lead to glyphosate resistance |  |
| B3 | strongly enhanced | enhanced | enhancement of resistance levels ([1]; N44D combined with P106L, after 18 hours of growth): 2.5 fold |
| B4 |  | confers resistance |  |
| B5 |  |  | Km of PEP [3]: increase |
| B6 | able to complement bacterial growth at later time points |  |  |
| B7 |  |  | lower affinity for its normal substrate (PEP) [4]: 25 fold; higher tolerance for glyphosate [5]: 26 fold |
